We go through two molecules from US20050191301A1 (Janssen / Centocor, published 2005).

Ends that are not written are not given here.

Assay [1] addresses EPO receptor (on UT-7/EPO cells) (human) (UniProt P19235). Kind of assay: cell-based or functional assay.
For assay [2], the target named is T1, EPO receptor (on UT-7/EPO cells) (human, UniProt P19235 25-508).
T1 sequence (looked up): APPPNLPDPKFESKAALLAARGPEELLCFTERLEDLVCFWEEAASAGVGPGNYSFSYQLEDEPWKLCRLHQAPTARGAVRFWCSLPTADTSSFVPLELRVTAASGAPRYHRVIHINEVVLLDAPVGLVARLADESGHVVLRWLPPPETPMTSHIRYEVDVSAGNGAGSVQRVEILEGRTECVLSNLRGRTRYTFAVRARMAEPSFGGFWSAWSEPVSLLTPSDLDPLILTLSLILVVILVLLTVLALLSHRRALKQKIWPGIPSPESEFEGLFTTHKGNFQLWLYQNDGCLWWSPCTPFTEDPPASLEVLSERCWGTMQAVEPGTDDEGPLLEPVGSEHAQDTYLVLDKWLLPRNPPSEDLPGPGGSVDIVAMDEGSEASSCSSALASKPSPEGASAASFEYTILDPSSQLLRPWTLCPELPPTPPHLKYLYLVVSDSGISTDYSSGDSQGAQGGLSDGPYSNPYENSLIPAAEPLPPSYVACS
Briefly: cell-based or functional assay.

Take “recombinant human erythropoietin (rHuEPO) (from UniProt P01588 28-192) (ligand)”: in assay [1], the EC50 in the UT7 in vitro bioactivity assay, relative to its historical average was found to be 3 fold.

B1: EMP-1 (EPO mimetic peptide-1) (peptide)
peptide: GGTYSCHFGPLTWVCKPQGG
modifications: ends and bridges not checked; cysteine pairing not given here
With B1, in assay [2], the “EC50 in the UT-7/EPO in vitro bioactivity assay, relative to its historical average” value came to 2 fold.
